Experimental data: the nanobody polyreactivity screen of Harvey et al. (2022)

Assay: yeast display, Sf9 membrane polyspecificity reagent, FACS + sequencing; frameworks hold sequencing errors
How it was run: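 After 36–48 hours of galactose induction, yeast (Saccharomyces cerevisiae BJ5465) displaying a synthetic nanobody library were stained at 4 °C for 1 hour with 10% biotinylated, detergent-solubilized Sf9 membrane reagent. Streptavidin microbeads enriched the stained cells before FACS sorting into low and high (top ~1%) gates on anti-HA and streptavidin fluorescence. Each clone's polyreactivity label reflects its gate of origin.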

Q: With “QVQLVESGGGLVQAGGSLRLSCAASGSTFIANALGWYRQAPGKEREFVAAITWSGGSTYYADSVKGRFTLSRDNAKNTVFLQMNSLKPEDTAVYYCAKKGRTARGRYDYWGQGTQVTVSS” as the sequence, how does the “polyreactivity (PSR sort gate)” value read?
A: low polyreactivity

Q: For “QVQLVESGGGLVQAGGSLRLSCAASGSTFIAYAMGWYRQAPGKESELVAAITSGDGTYYADSVKGRFTISRDNAKNTVYLQMNSLKPEDTAVYYCAVGYYWNEPLYWYGDFDYWGQGTQVTVSS”, which “polyreactivity (PSR sort gate)” value is on record?
A: high polyreactivity

Q: For “QVQLVESGGGLVQAGGSLRLSCAASGSTFIDYAMGWYRQAPGKEREFVAGISSGDSTDYADSVKGRFTISRDNAKNTVYLQMNSLKPEDTAVYYCNADWNPTERWFYWYTPLGYDYWGQGTQVTVSS”, which “polyreactivity (PSR sort gate)” value is on record?
A: low polyreactivity

Q: For “QVQLVESGGGLVQAGGSLRLSCAASGSTFIDYAMGWYRQAPGKERELVAAITNGGNTKYADSVKGRFTISRDNAKNTVYLQMNSLKPEDTAVYYCAREPSIFTPSYDYWGQGTQVNVSS”, which “polyreactivity (PSR sort gate)” value is on record?
A: low polyreactivity

Q: Which “polyreactivity (PSR sort gate)” value does the source give for “QVQLVESGGGLVQAGGSLRLSCAASGSTFIDYGMGWYRQAPGKERELVAAIDLDSGDTYYADSVKGRFTISRDNAKNTVYLQMNSLKPEDTAVYYCAAQYWYRYNYWGQGTQVTVSS” here?
A: low polyreactivity

Q: With “QVQLVESGGGLVQAGGSLRLSCAASGSTFIGHAMGWYRQAPGIERELVATITSGDSTYADSVKGRFTISRDNAKNTVYLQMNSLKPEDTAVYYCNADPWDIGSSFELDYWGQGTQLTVSS” as the sequence, how does the “polyreactivity (PSR sort gate)” value read?
A: low polyreactivity

Q: With “QVQLVESGGGLVQAGGSLRLSCAASGSTFIINAMGWYRQAPGKERELVAAITIGDITNYADSVKGRFTISRDNAKNTVYLQMNSLKPEDTAVYYCNKDALLFWHRDYVLDTYEYWGQGTQVTVSS” as the sequence, how does the “polyreactivity (PSR sort gate)” value read?
A: low polyreactivity

Q: For “QVQLVESGGGLVQAGGSLRLSCAASGSTFILYAMGWYRQAPGKERELVAAITTSGGSTYYADSVKGRFTISRDNAKNTVYLQMKSLKPEDTAVYYCNGGLSVTHGTSIPFRNYEYWGQGTQVTVSS”, which “polyreactivity (PSR sort gate)” value is on record?
A: low polyreactivity

Q: Which “polyreactivity (PSR sort gate)” value does the source give for “QVQLVESGGGLVQAGGSLRLSCAASGSTFINYAMGWYREAPGKERELVAAISKGGGSTYYADSVKGRFTISRDTAKNTVYLQINSLKPEDTAVYDCARARSGGSHREYYWGQGTQVTVSS” here?
A: high polyreactivity

Q: Which “polyreactivity (PSR sort gate)” value does the source give for “QVQLVESGGGLVQAGGSLRLSCAASGSTFINYAMGWYRQAPGKERELVAAYADSVKGRFTISRDNAKNTVYLQMNRLKPEDTAVYDCNAVTGECGQGTQVTVSS” here?
A: low polyreactivity

Q: Which “polyreactivity (PSR sort gate)” value does the source give for “QVQLVESGGGLVQAGGSLRLSCAASGSTFIRNAMGWYRQAPGKERELVAAISSSGGRTYYADSVKGRFTISRDNAKNTVYLQMNSLKPEDTAVYYCAARAVGAYYSSYSHGAGYYYWGQGTQLTVSS” here?
A: high polyreactivity

Q: With “QVQLVESGGGLVQAGGSLRLSCAASGSTFIRYTMGWYRQAPGKERELVAAISTGGTNYADSVKGRFTISRDNAKNTVYLQMYSLKPGDTAVYYCAKPSSPSLGGVSDRIYWGQGTQVTVSS” as the sequence, how does the “polyreactivity (PSR sort gate)” value read?
A: low polyreactivity

Q: With “QVQLVESGGGLVQAGGSLRLSCAASGSTFISNAMGWYRQAPGKERELVASITWTDVSTYYADSVKGRFTISRDNAKNTVYLQMNSLKPEDTAVYYCAAVTGLSSNDGYDYWGQGTQVTVSS” as the sequence, how does the “polyreactivity (PSR sort gate)” value read?
A: low polyreactivity

Q: With “QVQLVESGGGLVQAGGSLRLSCAASGSTFITNIMGWYRQAPGKERELVAAISYIDGTTYYADSVKGRFTISRDYAKNTVYLQMNSLKADDTAVYYCAAVVSKSSFDYWGQGTQVTVSS” as the sequence, how does the “polyreactivity (PSR sort gate)” value read?
A: low polyreactivity

Q: Which “polyreactivity (PSR sort gate)” value does the source give for “QVQLVESGGGLVQAGGSLRLSCAASGSTFITYAMGWYRQAPGKERELVAAISWSGVGTYYADSVKGRFTISRDNAKNTVYLQMNSLKPEDTAVYYCAVDRIYYYTYGVYYWGQGTQVTVSS” here?
A: high polyreactivity

Q: Which “polyreactivity (PSR sort gate)” value does the source give for “QVQLVESGGGLVQAGGSLRLSCAASGSTFIVNAMGWYRQAPGKERELVAAISRSGSDTYYADSVKGRFTISRDNAKNTVYLQMNSLKPEDTAVYYCAARWSYRSLARYNYWGQGTQVTVSS” here?
A: low polyreactivity

Q: For “QVQLVESGGGLVQAGGSLRLSCAASGSTFIVNAMRWYRQAPGKERELVAAIDWSGGSTYYADSVKGRFTISRDNAKNTVYLQMNSLKPEDTAVYYCAAQYEIPAGNSTYDYWGQGTQVTVSS”, which “polyreactivity (PSR sort gate)” value is on record?
A: low polyreactivity

Q: For “QVQLVESGGGLVQAGGSLRLSCAASGSTFIVYAMGWYRQATGKERELVAAISLDGGSTYYADSVKGRFTISRDNAKNTVYLQMNSLKPEDTAVYYCNADYYANSITYDSWGQGTQVTVSS”, which “polyreactivity (PSR sort gate)” value is on record?
A: low polyreactivity

Q: Which “polyreactivity (PSR sort gate)” value does the source give for “QVQLVESGGGLVQAGGSLRLSCAASGSTFIWNAMGWYRQAPRKERELVATITYSGGSTYYADSVKGRFTISRDNAKNTVYLQMNSLKPEDTAVYYCATDATIPKCYTYPGEMDYWGQGTQVTVSS” here?
A: low polyreactivity

Q: With “QVQLVESGGGLVQAGGSLRLSCAASGSTFIYYTMGWYRQAPGKERELVAAISWRGGSTYYADSVKGRFTIARDNAKNTVYLQMNSLKPEDTAVYYCATGYLYFTSYRYNYWGQGTQVTVSS” as the sequence, how does the “polyreactivity (PSR sort gate)” value read?
A: low polyreactivity

Q: For “QVQLVESGGGLVQAGGSLRLSCAASGSTFKGTAMGWYRQAPGNERELVAAINRSGTSTYYAHSVKGRFTISRDNAKNTVYLQMNSLKPEDTAVYYCANKYFGHRFDYWGQGTQVTVSS”, which “polyreactivity (PSR sort gate)” value is on record?
A: high polyreactivity

Q: Which “polyreactivity (PSR sort gate)” value does the source give for “QVQLVESGGGLVQAGGSLRLSCAASGSTFKGYAMGWYRQAPGKERELVAAITWSSGRTYYADSVKGRFTISRDNAKNTVYLQMNSLKPEDTAVYYCAAKSRRTRRSYYWGQGTQVTVSS” here?
A: high polyreactivity
